Measured values published in patent US20050026219A1, “Process for label-free measurement of modified substrate” (Boehringer Ingelheim Pharma GmbH & Co. KG, priority 2001, published 2005).
“And” between values parts separate entries of the source, which are not always exact repeats. Equal values may be shown once.

How the values were obtained:
[1] = molecular target: phosphorylated Poly-(Glu, Tyr) 4:1 (after reaction with EGF-RK and ATP); test: RIfS solution competition: PGT 10 ug/50 ul, EGF-RK 2 Units/50 ul, ATP; free antibody read on phosphotyrosine-diamino-PEG 2000 sensor; lower value = antibody taken up by phosphorylated substrate
[2] = molecular target: Poly-(Glu, Tyr) 4:1 (MW: 39100, Messrs. Sigma; CAS number 97105-00-5); test: RIfS solution competition: PGT 10 ug/50 ul, EGF-RK 1 Unit/50 ul, no ATP, no inhibitor (control of the Tyrphostin 47 series); phosphotyrosine-diamino-PEG 2000 sensor
[3] = molecular target: Raytide EL (protein-tyrosine-kinase substrate, MW 2476 Dalton, Messrs. Calbiochem); test: RIfS solution competition: Raytide EL 2 ug/50 ul, EGF-RK 0.5 Units/50 ul, no ATP; free antibody read on phosphotyrosine-diamino-PEG 2000 sensor
[4] = molecular target: phosphorylated Poly-(Glu, Tyr) 4:1 (after reaction with EGF-RK and ATP); test: RIfS solution competition: PGT 10 ug/50 ul, EGF-RK 1 Unit/50 ul, ATP, no inhibitor (erbstatin analogue series); phosphotyrosine-diamino-PEG 2000 sensor
[5] = molecular target: phosphorylated Raytide EL (after reaction with EGF-RK and ATP); test: RIfS solution competition: Raytide EL 2 ug/50 ul, EGF-RK 0.5 Units/50 ul, ATP; free antibody read on phosphotyrosine-diamino-PEG 2000 sensor; lower value = antibody taken up by phosphorylated substrate
[6] = molecular target: phosphorylated Poly-(Glu, Tyr) 4:1 (after reaction with EGF-RK and ATP); test: RIfS solution competition: PGT 10 ug/50 ul, EGF-RK 1 Unit/50 ul, ATP, no inhibitor (genistein series); phosphotyrosine-diamino-PEG 2000 sensor
[7] = molecular target: Poly-(Glu, Tyr) 4:1 (MW: 39100, Messrs. Sigma; CAS number 97105-00-5); test: RIfS solution competition: antibody incubated with mixture (PGT 10 ug/50 ul, EGF-RK 0.1 Unit/50 ul, EGF 0.5 ug/50 ul, no ATP), free antibody read on phosphotyrosine-diamino-PEG 2000 sensor; high value = antibody not taken up by substrate
[8] = molecular target: phosphorylated Poly-(Glu, Tyr) 4:1 (after reaction with EGF-RK and ATP); test: RIfS solution competition: PGT 10 ug/50 ul, EGF-RK 1 Unit/50 ul, ATP, no inhibitor (Tyrphostin 47 series); phosphotyrosine-diamino-PEG 2000 sensor
[9] = molecular target: Poly-(Glu, Tyr) 4:1 (MW: 39100, Messrs. Sigma; CAS number 97105-00-5); test: RIfS solution competition: PGT 10 ug/50 ul, EGF-RK 2 Units/50 ul, no ATP; free antibody read on phosphotyrosine-diamino-PEG 2000 sensor
[10] = molecular target: phosphorylated Poly-(Glu, Tyr) 4:1 (after reaction with EGF-RK and ATP); test: RIfS solution competition: PGT 10 ug/50 ul, EGF-RK 1 Unit/50 ul, ATP, no inhibitor (staurosporin series); phosphotyrosine-diamino-PEG 2000 sensor
[11] = molecular target: phosphorylated Poly-(Glu, Tyr) 4:1 (after reaction with EGF-RK and ATP); test: RIfS solution competition; mean of the six complete mixtures of Table 10
[12] = molecular target: Poly-(Glu, Tyr) 4:1 (MW: 39100, Messrs. Sigma; CAS number 97105-00-5); test: RIfS solution competition: PGT 10 ug/50 ul, EGF-RK 1 Unit/50 ul, no ATP; free antibody read on phosphotyrosine sensor
[13] = molecular target: Poly-(Glu, Tyr) 4:1 (MW: 39100, Messrs. Sigma; CAS number 97105-00-5); test: RIfS solution competition: PGT 10 ug/50 ul, EGF-RK 1 Unit/50 ul, no ATP, no inhibitor (control of the genistein series); phosphotyrosine-diamino-PEG 2000 sensor
[14] = molecular target: oligopeptide Ac-Ile-Tyr-Gly-Glu-Phe-NH2 "M-2165" (Messrs. Bachem, MW 668.8); test: RIfS solution competition: M-2165 10 ug/50 ul, p60c-src-kinase 2 Units/50 ul, no ATP; free antibody read on phosphotyrosine-diamino-PEG 2000 sensor
[15] = molecular target: phosphorylated Poly-(Glu, Tyr) 4:1 (after reaction with EGF-RK and ATP); test: RIfS solution competition: antibody incubated with mixture (PGT 10 ug/50 ul, EGF-RK 0.1 Unit/50 ul, EGF 0.5 ug/50 ul, ATP), free antibody read on phosphotyrosine-diamino-PEG 2000 sensor; lower value = antibody taken up by phosphorylated substrate
[16] = molecular target: oligopeptide Ac-Ile-Tyr-Gly-Glu-Phe-NH2 "M-2165" (Messrs. Bachem, MW 668.8); test: RIfS solution competition: M-2165 10 ug/50 ul, p60c-src-kinase 4 Units/50 ul, no ATP; free antibody read on phosphotyrosine-aminodextrane (AMD) sensor
[17] = molecular target: Poly-(Glu, Tyr) 4:1 (MW: 39100, Messrs. Sigma; CAS number 97105-00-5); test: RIfS solution competition; mean of the two mixtures without ATP of Table 10
[18] = molecular target: Poly-(Glu, Tyr) 4:1 (MW: 39100, Messrs. Sigma; CAS number 97105-00-5); test: RIfS solution competition: PGT 10 ug/50 ul, EGF-RK 1 Unit/50 ul, no ATP, no inhibitor (control of the staurosporin series); phosphotyrosine-diamino-PEG 2000 sensor

- Optical layer thickness in nm [1]: 0.225 nm
- Optical layer thickness in nm [2]: 2.3 nm
- Optical layer thickness in nm [3]: 3.11 nm
- Optical layer thickness in nm [4]: 0.852 nm
- Optical layer thickness in nm [5]: 1.83 nm
- Optical layer thickness in nm [6]: 0.446 nm
- Optical layer thickness in nm [7]: 2.59 nm
- Optical layer thickness in nm [8]: 0.613 nm
- Optical layer thickness in nm [9]: 2.65 nm
- Optical layer thickness in nm [10]: 0.233 nm
- optical layer thickness in nm (mean value) [11]: 0.19 nm
- Optical layer thickness in nm [12]: 2.06 nm and 2.27 nm
- Optical layer thickness in nm [13]: 2.4 nm
- Optical layer thickness in nm [14]: 3.2 nm
- Optical layer thickness in nm [15]: 2.04 nm
- Optical layer thickness in nm [16]: 3.81 nm
- optical layer thickness in nm (mean value) [17]: 2.16 nm
- Optical layer thickness in nm [18]: 2.99 nm
Substance: monoclonal murine antibody IgG1 from Ascites: Anti-PhosphoTyrosine (Clone number: PT-66, Messrs. Sigma)
